Source: US9163071B2

What was measured:
[1] = target: NF-κB p65, endogenous in the cells (activated by TNFα) (human) (UniProt Q04206)
[2] = target: NF-κB p65, endogenous in the cells (activated by TNFα) (human) (UniProt Q04206); remark: listed apart in the source
[3] = target: Myc-ASC (Myc-tagged Apoptosis speck protein containing a CARD) (Homo sapiens (Human)) (UniProt Q9ULZ3)
[4] = target: CIAS1-PYD (pyrin only CIAS1 construct) (Homo sapiens (Human)) (UniProt Q96P20)

TNFα-stimulated 3X-NF-κB-Luc reporter (luciferase) [1]	p65 localization pattern after TNFa treatment (immunofluorescence, cells scored) [2]	percentage of ASC expressing cells containing specks (CIAS1-PYD co-expressed) [3]	percentage of ASC expressing cells containing specks (CIAS1-PYD co-expressed) [4]	Substance
3 fold	–	–	–	FLAG-POP2 (POP2 with an N-terminal Flag epitope in pcDNA 3.1)
–	40%	10%	10%	GFP-POP2 (GFP fusion of pyrin-only protein 2)
